{
  "source": "paper PMC7083938",
  "about": "“NELL2-Robo3 complex structure reveals mechanisms of receptor activation for axon guidance” (Nature Communications, 2020)",
  "binders": {"B1": {"name": "mouse Robo1 ectodomain (domain or fragment, UniProt O89026 20-858, looked up)", "chain": "SRLRQEDFPPRIVEHPSDLIVSKGEPATLNCKAEGRPTPTIEWYKGGERVETDKDDPRSHRMLLPSGSLFFLRIVHGRKSRPDEGVYICVARNYLGEAVSHNASLEVAILRDDFRQNPSDVMVAVGEPAVMECQPPRGHPEPTISWKKDGSPLDDKDERITIRGGKLMITYTRKSDAGKYVCVGTNMVGERESEVAELTVLERPSFVKRPSNLAVTVDDSAEFKCEARGDPVPTVRWRKDDGELPKSRYEIRDDHTLKIRKVTAGDMGSYTCVAENMVGKAEASATLTVQEPPHFVVKPRDQVVALGRTVTFQCEATGNPQPAIFWRREGSQNLLFSYQPPQSSSRFSVSQTGDLTITNVQRSDVGYYICQTLNVAGSIITKAYLEVTDVIADRPPPVIRQGPVNQTVAVDGTLILSCVATGSPAPTILWRKDGVLVSTQDSRIKQLESGVLQIRYAKLGDTGRYTCTASTPSGEATWSAYIEVQEFGVPVQPPRPTDPNLIPSAPSKPEVTDVSKNTVTLSWQPNLNSGATPTSYIIEAFSHASGSSWQTAAENVKTETFAIKGLKPNAIYLFLVRAANAYGISDPSQISDPVKTQDVPPTSQGVDHKQVQRELGNVVLHLHNPTILSSSSVEVHWTVDQQSQYIQGYKILYRPSGASHGESEWLVFEVRTPTKNSVVIPDLRKGVNYEIKARPFFNEFQGADSEIKFAKTLEEAPSAPPRSVTVSKNDGNGTAILVTWQPPPEDTQNGMVQEYKVWCLGNETKYHINKTVDGSTFSVVIPSLVPGIRYSVEVAASTGAGPGVKSEPQFIQLDSHGNPVSPEDQVSLAQQISDVVRQP", "notes": "Robo1, mouse, ectodomain; Mostly dimeric, in equilibrium with monomer and higher oligomers; also called mRobo1 ectodomain; mRobo1; source: High Five cells (baculovirus), secreted, purified (Ni-NTA, SEC)"}, "B2": {"name": "full-length mouse NELL2 (ligand, UniProt Q61220 25-819, looked up)", "chain": "LGVDPSLQIDVLTELELGESTDGVRQVPGLHNGTKAFLFQESPRSIKASTATAERFFQKLRNKHEFTILVTLKQIHLNSGVILSIHHLDHRYLELESSGHRNEIRLHYRSGTHRPHTEVFPYILADAKWHKLSLAFSASHLILHIDCNKIYERVVEMPSTDLPLGTTFWLGQRNNAHGYFKGIMQDVHVLVMPQGFIAQCPDLNRTCPTCNDFHGLVQKIMELQDILSKTSAKLSRAEQRMNRLDQCYCERTCTVKGTTYRESESWTDGCKNCTCLNGTIQCETLVCPAPDCPPKSAPAYVDGKCCKECKSTCQFQGRSYFEGERNTVYSSSGMCVLYECKDQTMKLVENIGCPPLDCPESHQIALSHSCCKVCKGYDFCSEKHTCMENSVCRNLNDRAVCSCRDGFRALREDNAYCEDIDECAEGRHYCRENTMCVNTPGSFMCICKTGYIRIDDYSCTEHDECLTNQHNCDENALCFNTVGGHNCVCKPGYTGNGTTCKAFCKDGCRNGGACIAANVCACPQGFTGPSCETDIDECSEGFVQCDSRANCINLPGWYHCECRDGYHDNGMFAPGGESCEDIDECGTGRHSCTNDTICFNLDGGYDCRCPHGKNCTGDCVHEGKVKHTGQIWVLENDRCSVCSCQTGFVMCRRMVCDCENPTVDLSCCPECDPRLSSQCLHQNGETVYNSGDTWVQDCRQCRCLQGEVDCWPLACPEVECEFSVLPENECCPRCVTDPCQADTIRNDITKTCLDEMNVVRFTGSSWIKHGTECTLCQCKNGHLCCSVDPQCLQEL", "modifications": "biotin (NHS-Biotin) where captured on the SA chip for SPR", "notes": "NELL2, mouse; called full-length; the methods say that mature domains were cloned into pAcGP67A; Trimer by MALS; also called mNELL2; mNELL2 ectodomain; source: High Five cells (baculovirus), secreted, purified (Ni-NTA, SEC); not shown: His6, C-terminal, kept"}},
  "key": {"mouse Robo1 FN1–3": {"biological_target": "T1, mouse Robo1 FN1–3 (mouse, UniProt O89026 524-835, biotin on the N-terminal amine (NHS-Biotin at pH 6.5))", "T1 construct": "Robo1, mouse, FN domains 1-3; also called mRobo1 FN1–3; source: High Five cells (baculovirus), secreted, purified (Ni-NTA, SEC)", "T1 sequence (looked up)": "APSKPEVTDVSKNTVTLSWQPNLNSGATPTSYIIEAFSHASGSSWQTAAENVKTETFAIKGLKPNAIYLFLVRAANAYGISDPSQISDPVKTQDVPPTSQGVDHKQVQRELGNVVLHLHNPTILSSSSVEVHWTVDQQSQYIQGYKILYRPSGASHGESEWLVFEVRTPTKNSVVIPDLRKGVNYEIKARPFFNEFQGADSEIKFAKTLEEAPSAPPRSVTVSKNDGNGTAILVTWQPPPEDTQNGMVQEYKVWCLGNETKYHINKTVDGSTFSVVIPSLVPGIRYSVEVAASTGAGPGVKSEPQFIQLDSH", "assay": "SPR; mRobo1 FN1–3 biotinylated at the N-terminal amine (NHS-Biotin, pH 6.5), 315 RU captured on a Biacore SA chip; mNELL2 EGF1–6 as analyte; Langmuir isotherm", "details": "both partners purified"}, "[1]": {"biological_target": "the molecule itself", "assay": "SEC-MALS; Superose 6 Increase 10/300 in HBS (10 mM HEPES pH 7.2, 150 mM NaCl), Wyatt HELEOS II"}, "[2]": {"biological_target": "the molecule itself", "assay": "AUC; sedimentation velocity, 20 °C, c(s) analysis in SEDFIT; single concentration 2.5 µM mRobo1 and 1.8 µM mRobo3 at 200,000 g, and concentration series (mRobo3 up to 20 µM)"}, "full-length mouse NELL2": {"biological_target": "B2", "assay": "SEC; complex of full-length mNELL2 and mRobo3 FN1 purified by SEC; peak fractions quantified in triplicate by western blot against the His6 tag with 1:1 molar standards", "details": "both partners purified"}, "[3]": {"biological_target": "T2, biotinylated human Robo3 FN1–3 (Avi-tagged) (human, UniProt Q96MS0 558-869, biotin on the Avi-tag (BirA))", "T2 construct": "Robo3, human, FN domains 1-3; also called biotinylated hRobo3 FN1–3; hRobo3 FN1–3; source: High Five cells (baculovirus), secreted, purified (Ni-NTA, SEC), biotinylated with BirA", "T2 sequence (looked up)": "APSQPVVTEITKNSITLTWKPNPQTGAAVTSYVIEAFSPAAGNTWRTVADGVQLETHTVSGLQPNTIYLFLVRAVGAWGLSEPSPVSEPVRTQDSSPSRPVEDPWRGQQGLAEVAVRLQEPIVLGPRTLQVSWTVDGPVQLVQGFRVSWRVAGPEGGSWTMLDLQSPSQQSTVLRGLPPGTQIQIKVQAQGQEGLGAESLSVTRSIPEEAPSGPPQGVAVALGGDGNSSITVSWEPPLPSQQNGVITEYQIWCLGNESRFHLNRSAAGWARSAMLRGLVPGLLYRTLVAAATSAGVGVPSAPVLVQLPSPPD", "assay": "SPR; biotinylated hRobo3 FN1–3 captured on an NLC (neutravidin) chip, ProteOn XPR36; NELL EGF constructs as analyte; 25 °C, 10 mM HEPES pH 7.2, 150 mM NaCl, 0.05% Tween-20, 0.1% BSA; equilibrium responses, 1:1 Langmuir model", "details": "both partners purified"}, "[4]": {"biological_target": "the molecule itself", "assay": "SEC-MALS; Wyatt HELEOS II coupled to an AKTA FPLC, Superose Increase 6 10/300, HBS; Zimm model"}, "mouse Robo1 ectodomain": {"biological_target": "B1", "assay": "SPR; mRobo1 ectodomain on a CM5 chip by random amine coupling (~1,200 R.U.); mNELL2 as analyte; KD from equilibrium responses assuming 50 to 100% active surface; buffer as for the other SPR experiments, 25 °C", "details": "both partners purified"}},
  "note": "“And” between values parts separate entries of the source, which are not always exact repeats. Equal entries are not always repeated.",
  "data": [
    {"binder": "mouse NELL2 EGF1–6, wild type (domain or fragment, NELL2, mouse, EGF domains 1-6; also called mNELL2 EGF1–6 WT; mNELL2 EGF1–6; source: High Five cells (baculovirus), secreted, purified (Ni-NTA, SEC)) not shown", "values": [
      {"measurement": "Kd", "setting": "mouse Robo1 FN1–3", "value": 14, "unit": "µM"}
    ]},
    {"binder": "mNELL1 (full length) (ligand, mouse, UniProt Q2VWQ2 25-809, looked up, mouse NELL1, D25-N809; trimer by MALS; also called NELL1FL (Polyhedrin, mouse); source: High Five cells (baculovirus), purified (Ni-NTA, SEC)) DPDLQMDIITELDLVNTTLGVTQVAGLHNASKAFLFQDVQREIHSAPHVSEKLIQLFRNKSEFTFLATVQQKPSTSGVILSIRELEHSYFELESSGPREEIRYHYIHGGKPRTEALPYRMADGQWHKVALSVSASHLLLHVDCNRIYERVIDPPETNLPPGSNLWLGQRNQKHGFFKGIIQDGKIIFMPNGFITQCPNLNRTCPTCSDFLSLVQGIMDLQELLAKMTAKLNYAETRLGQLENCHCEKTCQVSGLLYRDQDSWVDGDNCRNCTCKSGAVECRRMSCPPLNCSPDSLPVHISGQCCKVCRPKCIYGGKVLAEGQRILTKTCRECRGGVLVKITEACPPLNCSEKDHILPENQCCRVCRGHNFCAEAPKCGENSECKNWNTKATCECKNGYISVQGNSAYCEDIDECAAKMHYCHANTVCVNLPGLYRCDCIPGYIRVDDFSCTEHDDCGSGQHNCDKNAICTNTVQGHSCTCQPGYVGNGTVCKAFCEEGCRYGGTCVAPNKCVCPSGFTGSHCEKDIDECAEGFVECHNHSRCVNLPGWYHCECRSGFHDDGTYSLSGESCIDIDECALRTHTCWNDSACINLAGGFDCLCPSGPSCSGDCPHEGGLKHNGQVWILREDRCSVCSCKDGKIFCRRTACDCQNPNVDLFCCPECDTRVTSQCLDQSGQKLYRSGDNWTHSCQQCRCLEGEADCWPLACPSLSCEYTAIFEGECCPRCVSDPCLADNIAYDIRKTCLDSSGISRLSGAVWTMAGSPCTTCQCKNGRVCCSVDLVCLEN", "values": [
      {"measurement": "stoichiometry N", "setting": "[1]", "value": 3}
    ]},
    {"binder": "B1", "values": [
      {"measurement": "stoichiometry N", "setting": "[2]", "value": 2}
    ]},
    {"binder": "mouse Robo3 FN1 domain (domain or fragment, UniProt Q9Z2I4 558-652, looked up, Robo3, mouse, FN1 domain; also called mRobo3 FN1; source: High Five cells (baculovirus), secreted, purified (Ni-NTA, SEC); not shown: His6, C-terminal, kept) PPSQPIVTEVTANSITLTWKPNPQSGATATSYVIEAFSQAAGNTWRTVADGVQLETYTISGLQPNTIYLFLVRAVGAWGLSEPSPVSEPVQTQDS", "values": [
      {"measurement": "stoichiometry N", "setting": "full-length mouse NELL2", "value": "3 mRobo3 FN1 per mNELL2 trimer"}
    ]},
    {"binder": "human NELL2 EGF domains 1-6 (domain or fragment, NELL2, human, EGF domains 1-6; also called hNELL2 EGF1–6; NELL2 EGF1–6; source: High Five cells (baculovirus), secreted, purified (Ni-NTA, SEC)) not shown", "values": [
      {"measurement": "Kd", "setting": "[3]", "value": 0.6, "unit": "µM"}
    ]},
    {"binder": "B2", "values": [
      {"measurement": "stoichiometry N", "setting": "[4]", "value": 3},
      {"measurement": "Kd", "setting": "mouse Robo1 ectodomain", "value": "~350 µM and 190 to 400 µM"}
    ]}
  ]
}
